Measured values: patent USRE48267E1, “Variants of C-type natriuretic peptide” (priority 2009, dated 2020)
Where no end group is shown, it is not given here. [ ]: non-standard residue; d: D form. PEO12 = PEO12, 0.6 kDa, monodispersed; PEO24 = PEO24, 1.2 kDa, monodispersed; tBuAla = CC(C)(C)C[C@H](N)C(=O)O; Cit = NC(=O)NCCC[C@H](N)C(=O)O

T1: NPR-B (natriuretic peptide receptor B), murine, expressed endogenously on NIH3T3 cells (murine, UniProt Q6VVW5 17-1047)
T1 sequence (looked up): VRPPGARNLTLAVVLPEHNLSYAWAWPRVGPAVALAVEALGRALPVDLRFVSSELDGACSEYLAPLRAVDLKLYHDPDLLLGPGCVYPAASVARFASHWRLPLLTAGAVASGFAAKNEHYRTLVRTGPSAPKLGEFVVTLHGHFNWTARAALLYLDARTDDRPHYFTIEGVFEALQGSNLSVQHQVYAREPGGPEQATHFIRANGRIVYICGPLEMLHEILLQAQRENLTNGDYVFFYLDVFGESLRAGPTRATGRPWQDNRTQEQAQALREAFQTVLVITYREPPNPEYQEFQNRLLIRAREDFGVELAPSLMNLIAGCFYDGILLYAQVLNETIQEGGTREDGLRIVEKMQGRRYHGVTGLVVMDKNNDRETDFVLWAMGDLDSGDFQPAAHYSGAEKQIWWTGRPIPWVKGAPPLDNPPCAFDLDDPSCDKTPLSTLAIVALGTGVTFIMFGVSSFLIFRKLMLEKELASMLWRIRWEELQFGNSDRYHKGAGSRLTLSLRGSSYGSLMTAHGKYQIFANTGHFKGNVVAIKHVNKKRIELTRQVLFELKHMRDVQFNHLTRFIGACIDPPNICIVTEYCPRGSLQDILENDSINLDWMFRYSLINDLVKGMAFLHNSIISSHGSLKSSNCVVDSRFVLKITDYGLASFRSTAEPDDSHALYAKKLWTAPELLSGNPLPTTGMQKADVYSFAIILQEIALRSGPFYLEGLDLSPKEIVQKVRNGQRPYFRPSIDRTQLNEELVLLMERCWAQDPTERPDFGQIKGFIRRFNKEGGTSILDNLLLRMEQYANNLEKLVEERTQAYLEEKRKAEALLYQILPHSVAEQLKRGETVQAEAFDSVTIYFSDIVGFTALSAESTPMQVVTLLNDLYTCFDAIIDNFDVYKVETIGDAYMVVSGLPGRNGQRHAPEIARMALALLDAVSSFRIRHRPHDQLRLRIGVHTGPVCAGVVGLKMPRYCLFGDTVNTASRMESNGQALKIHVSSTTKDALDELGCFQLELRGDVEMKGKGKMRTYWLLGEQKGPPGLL


target: T1, NPR-B (natriuretic peptide receptor B), …; assay: cell-based or functional assay

| Binder | cGMP response rel. to 1 uM CNP22; 10 nM peptide, NIH3T3 cells | cGMP response rel. to 1 uM CNP22; 1 uM peptide, NIH3T3 cells |
| --- | --- | --- |
| GLSRGCFGLKLDRIGSMSGLGC [CNP22, K4R] | 59 rel. to 1 uM CNP22 (100) | 121 rel. to 1 uM CNP22 (100) |
| GLSRGCFGTKLDRIGSMSGLGC [CNP22, K4R, L9T] | 4 rel. to 1 uM CNP22 (100) | 68 rel. to 1 uM CNP22 (100) |
| GLSRGCFVLKLDRIGSMSGLGC [CNP22, K4R, G8V] | 3 rel. to 1 uM CNP22 (100) | 25 rel. to 1 uM CNP22 (100) |
| GLSRGCFGLKLDRIGSNSGLGC [CNP22, K4R, M17N] | 40 rel. to 1 uM CNP22 (100) | 103 rel. to 1 uM CNP22 (100) |
| GLSRSCFGLKLDRIGSMSGLGC [CNP22, K4R, G5S] | 45 rel. to 1 uM CNP22 (100) | – |
| GLSRGCFGLKLDRIGSMSGRGC [CNP22, K4R, L20R] | 11 rel. to 1 uM CNP22 (100) | 8 rel. to 1 uM CNP22 (100) |
| GLSRGCFGLKLDRINSMSGLGC [CNP22, K4R, G15N] | 4 rel. to 1 uM CNP22 (100) | 41 rel. to 1 uM CNP22 (100) |
| GLSRGCFGLKLDRIGSMSGLRC [CNP22, K4R, G21R] | 20 rel. to 1 uM CNP22 (100) | 21 rel. to 1 uM CNP22 (100) |
| GLSRGCFGLRLDRIGSMSGLGC [CNP22, K4R, K10R] | 12 rel. to 1 uM CNP22 (100) | 80 rel. to 1 uM CNP22 (100) |
| GLSRGCFGLKLDRIGSMSGVGC [CNP22, K4R, L20V] | 0.2 rel. to 1 uM CNP22 (100) | 8 rel. to 1 uM CNP22 (100) |
| GLSRGCFGLKLDRIGSMSSLGC [CNP22, K4R, G19S] | 21 rel. to 1 uM CNP22 (100) | 63 rel. to 1 uM CNP22 (100) |
| GLSRGCFTLKLDRIGSMSGLGC [CNP22, K4R, G8T] | 11 rel. to 1 uM CNP22 (100) | 66 rel. to 1 uM CNP22 (100) |
| GLSRGCFSLKLDRIGSMSGLGC [CNP22, K4R, G8S] | 26 rel. to 1 uM CNP22 (100) | 86 rel. to 1 uM CNP22 (100) |
| GLSRGCFGLKLDRISSMSGLGC [CNP22, K4R, G15S] | 13 rel. to 1 uM CNP22 (100) | 71 rel. to 1 uM CNP22 (100) |
| ELSEGCFGLKLDRIGSMSGLGC [CNP22, G1E, K4E] | 11 rel. to 1 uM CNP22 (100) | 54 rel. to 1 uM CNP22 (100) |
| GLSRGCFGLKLDRIGQMSGLGC [CNP22, K4R, S16Q] | 42 rel. to 1 uM CNP22 (100) | 116 rel. to 1 uM CNP22 (100) |
| GLSRGCFGLKLDRIGSMSG[tBuAla]GC (ends and bridges not checked) [CNP22, K4R, L20t-butyl-Ala] | 1 rel. to 1 uM CNP22 (100) | 21 rel. to 1 uM CNP22 (100) |
| GLSRGCYGLKLDRIGSMSGLGC (ends and bridges not checked; cysteine pairing not given here) [CNP22, K4R, F7Y] | 2 rel. to 1 uM CNP22 (100) | 18 rel. to 1 uM CNP22 (100) |
| GLSRGCFGLKLDRIGSVSGLGC [CNP22, K4R, M17V] | 10 rel. to 1 uM CNP22 (100) | 65 rel. to 1 uM CNP22 (100) |
| GLSRGCFGLQLDRIGSMSGLGC [CNP22, K4R, K10Q] | 9 rel. to 1 uM CNP22 (100) | 45 rel. to 1 uM CNP22 (100) |
| GLSRGCFGLKLDRIGSMSRLGC [CNP22, K4R, G19R] | 22 rel. to 1 uM CNP22 (100) | 84 rel. to 1 uM CNP22 (100) |
| GLSRRCFGLKLDRIGSMSGLGC [CNP22, K4R, G5R] | 18 rel. to 1 uM CNP22 (100) | 80 rel. to 1 uM CNP22 (100) |
| GLSRGCFGLKLDRIRSMSGLGC [CNP22, K4R, G15R] | 0.3 rel. to 1 uM CNP22 (100) | 0.3 rel. to 1 uM CNP22 (100) |
| GLSRGCFGLKLDRI[Cit]SMSGLGC (ends and bridges not checked) [CNP22, K4R, G15Cit] | 1.4 rel. to 1 uM CNP22 (100) | 2 rel. to 1 uM CNP22 (100) |
| GLSRGCFGLKLDRIGSMSGLTC [CNP22, K4R, G21T] | 6 rel. to 1 uM CNP22 (100) | 21 rel. to 1 uM CNP22 (100) |
| GLSRGCFGL[Cit]LDRIGSMSGLGC (ends and bridges not checked) [CNP22, K4R, K10Cit] | 6 rel. to 1 uM CNP22 (100) | 33 rel. to 1 uM CNP22 (100) |
| GLSRGCFGLSLDRIGSMSGLGC [CNP22, K4R, K10S] | 16 rel. to 1 uM CNP22 (100) | 53 rel. to 1 uM CNP22 (100) |

target: T1, NPR-B (natriuretic peptide receptor B), …; assay: cell-based or functional assay; remark: another data set of the same source

| Binder | cGMP response rel. to 1 uM CNP22; 10 nM peptide, NIH3T3 cells | cGMP response rel. to 1 uM CNP22; 1 uM peptide, NIH3T3 cells |
| --- | --- | --- |
| {PEG 1 kDa}-GLSKGCFGLKLDRIGSMSGLGC (ends and bridges not checked; also: PEG polydispersed) [PEG1K-CNP22] | 15 rel. to 1 uM CNP22 (100) | 68 rel. to 1 uM CNP22 (100) |
| PEO12-GLSKGCFGLKLDRIGSMSGLGC (ends and bridges not checked) [PEO12-CNP22] | 12 rel. to 1 uM CNP22 (100) | 57 rel. to 1 uM CNP22 (100) |
| {PEG 2 kDa}-GLSKGCFGLKLDRIGSMSGLGC (ends and bridges not checked) [PEG2K-CNP22] | 6 rel. to 1 uM CNP22 (100) | 32 rel. to 1 uM CNP22 (100) |
| {PEO4‑(PEO12)3 (branched)}-GLSKGCFGLKLDRIGSMSGLGC (ends and bridges not checked) [PEO4-(PEO12)3 (branched)-CNP22] | 17 rel. to 1 uM CNP22 (100) | 52 rel. to 1 uM CNP22 (100) |
| {PEG 20 kDa}-GLSKGCFGLKLDRIGSMSGLGC (ends and bridges not checked) [PEG20K-CNP22] | 0 rel. to 1 uM CNP22 (100) | 15 rel. to 1 uM CNP22 (100) |
| {PEG 5 kDa}-GLSKGCFGLKLDRIGSMSGLGC (ends and bridges not checked; also: PEG polydispersed) [PEG5K-CNP22] | 8 rel. to 1 uM CNP22 (100) | 20 rel. to 1 uM CNP22 (100) |
| PEO24-GLSKGCFGLKLDRIGSMSGLGC (ends and bridges not checked) [PEO24-CNP22] | 8 rel. to 1 uM CNP22 (100) | 46 rel. to 1 uM CNP22 (100) |
| GLSKGCFGLKLDRIGSMSGLGC (not fully specified (N-terminus); ends and bridges not checked) [(PEO12)-Biotin-CNP22] | 19 rel. to 1 uM CNP22 (100) | 81 rel. to 1 uM CNP22 (100) |
